These results are taken from patent publication US20240360242A1 (KISOJI BIOTECHNOLOGY, published 2024).

The target of assay [1] is T1, recombinant human IGFBP-1 (human, UniProt P08833 26-259).
T1 construct: also called rhIGFB-1
T1 sequence (looked up): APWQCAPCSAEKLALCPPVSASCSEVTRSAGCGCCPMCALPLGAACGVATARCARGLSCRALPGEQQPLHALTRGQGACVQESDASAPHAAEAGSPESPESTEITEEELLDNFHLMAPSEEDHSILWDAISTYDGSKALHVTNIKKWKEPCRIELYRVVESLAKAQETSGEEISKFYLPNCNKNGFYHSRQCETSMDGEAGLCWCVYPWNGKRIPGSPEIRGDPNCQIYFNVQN
Briefly: ELISA. (In general: An ELISA detects its analyte on a solid surface through an enzyme-linked reagent.)

The target of a further assay is T2, human TROP2 on cells (human, UniProt P09758 27-323).
T2 construct: Full human TROP2, either transiently transfected into HEK or CHO cells or endogenous on cancer cell lines; also called HEK-TROP2; CHO-TROP2
T2 sequence: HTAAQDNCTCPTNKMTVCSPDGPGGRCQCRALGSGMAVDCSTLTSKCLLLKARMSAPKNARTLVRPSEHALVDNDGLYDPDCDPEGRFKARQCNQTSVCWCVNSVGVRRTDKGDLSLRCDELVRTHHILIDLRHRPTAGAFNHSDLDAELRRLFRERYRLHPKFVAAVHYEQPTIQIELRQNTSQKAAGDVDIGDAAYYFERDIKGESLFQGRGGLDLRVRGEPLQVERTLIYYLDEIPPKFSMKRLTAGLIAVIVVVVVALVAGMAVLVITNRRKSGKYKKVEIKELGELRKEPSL
Kind of assay: flow cytometry, 100 nM antibody, transiently transfected HEK cells, APC anti-human Fc. In short, it runs like this: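 HEK parental cells transiently transfected (lipofectamine) with human TROP2 truncation mutants, harvested 24 h later and Fc-blocked 10 min at RT. Anti-TROP2 sdAbs at 100 nM bound 30 min on ice, then detected with APC anti-human Fc (30 min) and 7-AAD added for viability.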

Assay [2] addresses T3, recombinant human TROP2 extracellular domain (aa 1-274) comprising His tag (human, UniProt P09758 27-274).
T3 construct: Used here for all assays on recombinant human TROP2 (ELISA, immunoblot, SPR, crystal), although only some of them name the catalogue number; also called human recombinant TROP2; recombinant human TROP2 protein; not shown: His tag
T3 sequence: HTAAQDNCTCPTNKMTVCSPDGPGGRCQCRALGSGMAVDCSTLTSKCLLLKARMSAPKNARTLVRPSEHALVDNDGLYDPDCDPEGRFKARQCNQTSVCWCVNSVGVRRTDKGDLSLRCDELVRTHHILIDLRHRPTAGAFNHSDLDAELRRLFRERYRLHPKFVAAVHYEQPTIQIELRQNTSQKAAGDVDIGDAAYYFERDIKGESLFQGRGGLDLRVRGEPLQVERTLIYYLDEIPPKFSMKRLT
Briefly: ELISA, coated rh TROP2. The protocol: Human TROP2 recombinant proteins were coated on 96-well ELISA plates at the concentration of 1 μg/mL. Plates were covered with adhesive plate cover and stored at 4° C. overnight. The next day, plates were washed 3× with washing buffer (PBS with 0.1% Tween™ 20). Plates were blocked with 2% fat-free BSA in washing buffer for 1 hour at 37° C. During the incubation time, the TROP2 reference antibodies, as well as the humanized variants, were diluted in the blocking buffer to the indicated concentrations. […] After blocking, the blocking buffer was removed from the wells and 100 μL of anti-TROP2 sdAbs dilutions were transferred to the corresponding wells. Plates were covered with adhesive plates cover and incubated at 37° C. for 1 hour. During the primary antibody incubation, the secondary antibody (goat anti-human IgG, HRP conjugated) was diluted 1 in 5000 with the blocking buffer. Plates were washed 3× with blocking buffer, followed by secondary antibody incubation for another 1 hour at 37° C. After the secondary antibody incubation, plates were washed 3× with washing buffer and added with 100 μL of ELISA chemiluminescent substrate (Thermofisher). The luminescence signal was detected by SpectraMax i3x at […].

The target of assay [3] is T3, recombinant human TROP2 extracellular …. Kind of assay: competitive ELISA on coated recombinant human TROP2, competitor KD004-His, anti-His-HRP. The procedure: The epitope characterization was assessed by competitive ELISA (FIG. 8 and FIG. 9). Microplates were coated with human recombinant TROP2 at 4° C. overnight. After washing, plates were blocked with blocking buffer (PBS+2% BSA), for 1 hour at room temperature. Meanwhile, the dilution for anti-TROP2 VHH sdAbs was prepared with blocking buffer making two different dilutions depending on the tag. For sdAbs with His tag, the antibody was diluted to 28571.4 pM. For sdAbs without tag, antibodies were serially diluted from 2857142.9 pM to 0.29 pM (8 dilutions, 10×). After that, equal volume of the his-tagged sdAbs and serial diluted non-tagged sdAbs were mixed, to make the final concentration of his-tagged sdAbs 14285.7 pM and non-tagged sdAbs from 1428571.4 pM to 0.14 pM. After washing two times, the mixed antibody contents were added into the wells and the plates were incubated for 2 hours at room temperature. The HRP-conjugated anti-6× His was diluted to 1:5000 and added to the wells after washing three times. Any unbound conjugate was removed by washing after 1 hour incubation at room temperature, and the colorimetric reaction was performed by adding the same volume of Supersignal ELISA Pico Luminol/Enhancer and SuperSignal ELISA Pico Stable Peroxide Solution and detected on SpectraMax i3x Microplate Reader. Positive and negative controls were included in each plate.

Assay [4] shares this target. Kind of assay: ELISA, coated rh TROP2, normalized to KD005.

B1: KD007 (antibody, human IgG1, V domains shown)
VH: QVQLQESGGGLVQPGGSLRLSCAASGFAFSFYAMAWYRQAPGKQRDMVATITAYGNTNYADSVKGRFTTSRDNAKNTVYLQMNSLKPEDTAVYVCNANLPSASHNYWGQGTQVTVSS
notes: also called anti-TROP2 sdAb KD007
Consider B1, for which the binding result in assay [1] was “no binding”; with human TROP2 on cells it was “binds”.

B2: KD002 (antibody, human IgG1, V domains shown)
VH: QVQLQESGGGMVQVGGSLRLSCAASGFPFSSADMSWVRQAPGKGPEWVSYINADGSKTYYPDSVKGRFTISRDNAKNTLYLLMNNLKPEDTALYRCARAKLTDTHYVEDYWGQGTQVTVSS
notes: also called anti-TROP2 sdAb KD002
One may read the EC50 as the concentration needed to bring the measured effect to its halfway point. In the case of B2, the EC50 in assay [2] worked out at 0.07 nM.

B3: KD004 (antibody, human IgG1, V domains shown)
VH: QVQLQESGGGLVQPGRSLRLSCAASGFTFSGSDMSWVRQAPGKGPEWVSYITGSGTTYYPDSVKGRFTTSRDNAKNMLYLQMNSLKPDDTALYRCAKARLTDSHYVEDAWGQGTQVTVSS
notes: also called anti-TROP2 sdAb KD004
As to B3, the “IC50 (read off the curve)” value in assay [3] is around 60 nM.

B4: KD005 (antibody, human IgG1, V domains shown)
VH: QVQLQESGGGLVEAGGSLRLSCAASGFTFSGSDMSWVRQAPGKGPEWVSYITSGGTTYYPDSVKGRFTISRDNAKNTLYLQMNSLKPDDTALYRCAKSRLTDSHYVEDAWGQGTQVTVSS
notes: also called anti-TROP2 sdAb KD005
Turning to B4, the “EC50 relative to KD005” value in assay [4] was 1 ratio to KD005.
